In publication PMC4288177:

What was measured:
[1] = target: T1, DnaA (AaDnaA, truncated) (Aquifex aeolicus, UniProt O66659 77-399); assay: smPIFE
T1 sequence: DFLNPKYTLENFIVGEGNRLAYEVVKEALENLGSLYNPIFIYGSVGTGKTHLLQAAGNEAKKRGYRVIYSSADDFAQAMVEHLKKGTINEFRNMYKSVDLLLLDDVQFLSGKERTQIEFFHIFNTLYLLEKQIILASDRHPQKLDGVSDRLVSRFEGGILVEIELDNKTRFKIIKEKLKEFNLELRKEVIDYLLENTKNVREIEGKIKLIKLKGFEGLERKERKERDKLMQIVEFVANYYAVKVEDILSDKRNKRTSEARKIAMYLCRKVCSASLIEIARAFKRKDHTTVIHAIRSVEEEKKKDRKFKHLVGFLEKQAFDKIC

[2] = target: T1, DnaA (AaDnaA, truncated); assay: smPIFE; remark: listed apart in the source
[3] = target: T1, DnaA (AaDnaA, truncated); assay: smFRET
[4] = target: T1, DnaA (AaDnaA, truncated); assay: smPIFE; remark: listed apart in the source
[5] = target: T1, DnaA (AaDnaA, truncated); assay: smPIFE; remark: listed apart in the source
[6] = target: T1, DnaA (AaDnaA, truncated); assay: smPIFE; remark: listed apart in the source

B1: pdT21 (Cy3 only, PIFE) (mixed)
DNA 1: TGGCGACGGCAGCGAGGCTTTTTTTTTTTTTTTTTTTTT
DNA 2: GCCTCGCTGCCGTCGCCA
B1: binds [1].

B2: pdTcontrol (Cy3 only) (mixed)
DNA 1: B1 DNA 1
DNA 2: GCCTCGCTGCCGTCGCCA
modifications: C6-amino-dT at position 19
B2: binds [2].

B3: pdT21 (mixed)
DNA 1: B1 DNA 1
DNA 2: GCCTCGCTGCCGTCGCCA
B3: binds [3].

B4: pdT3+17 (Cy3 only) (mixed)
DNA 1: B1 DNA 1
DNA 2: GCCTCGCTGCCGTCGCCA
modifications: C6-amino-dT at position 22
B4: binds [4].

B5: 5'-OP21 (Cy3 only) (mixed)
DNA 1: TTTTTTTTTTTTTTTTTTTTTCGGAGCGACGGCAGCGGT
DNA 2: ACCGCTGCCGTCGCTCCG
B5: binds [5].

B6: 3'-OP21 (Cy3 only) (mixed)
DNA 1: B5 DNA 1
DNA 2: ACCGCTGCCGTCGCTCCG
modifications: C6-amino-dT at position 21
B6: binds [6].
